In the Immune Epitope Database (IEDB):

Columns and labels:
Assay in all cases: IEDB peptide-MHC binding, purified MHC/competitive/radioactivity; filed as Kd, often an IC50 or EC50 that approximates it; ≥ and ≤ were set here for values at or beyond the usual limits of such assays
HLA-A*03:01 = target: HLA-A*03:01
HLA-A*11:01 = target: HLA-A*11:01
HLA-A*31:01 = target: HLA-A*31:01
HLA-A*33:01 = target: HLA-A*33:01
HLA-A*68:01 = target: HLA-A*68:01
[1] = source organism: Vaccinia virus WR
[2] = source organism: Dengue virus 1 Brazil/97-11/1997
[3] = source organism: SARS coronavirus Tor2
[4] = source organism: Dengue virus 2 Jamaica/1409/1983
[5] = source organism: Dengue virus 3 Martinique/1243/1999
[6] = source organism: Mammarenavirus guanaritoense
[7] = source organism: Mammarenavirus tacaribeense
[8] = source organism: Lassa virus Josiah

Sequence	Kd (HLA-A*03:01; [1])	Kd (HLA-A*11:01; [1])	Kd (HLA-A*31:01; [1])	Kd (HLA-A*33:01; [1])	Kd (HLA-A*68:01; [1])	further results
DSFLRKIGDK	≥ 59100 nM	11700 nM	3560 nM	1970 nM	6270 nM	
QVAINQVRR						Kd (HLA-A*68:01; [2]): 104 nM
LIKFISDNKK	142 nM	1010 nM	42.4 nM	≥ 10000 nM	47.2 nM	
HIASKINNNR	1960 nM	4030 nM	959 nM	5950 nM	18.8 nM	
IQFMMSRRR						Kd (HLA-A*03:01; [3]): 353 nM; Kd (HLA-A*11:01; [3]): 369 nM; Kd (HLA-A*31:01; [3]): 4.4 nM; Kd (HLA-A*33:01; [3]): 1440 nM; Kd (HLA-A*68:01; [3]): 1490 nM
GMLQGRGPLK						Kd (HLA-A*03:01; [4]): 6.17 nM; Kd (HLA-A*11:01; [4]): 37.9 nM
AAAYFVGYLK						Kd (HLA-A*03:01; [3]): 9.39 nM; Kd (HLA-A*11:01; [3]): 0.439 nM; Kd (HLA-A*31:01; [3]): 282 nM; Kd (HLA-A*33:01; [3]): 5610 nM; Kd (HLA-A*68:01; [3]): 1.08 nM
FSTSAADIKR	18000 nM	247 nM	11100 nM	≥ 22500 nM	16.5 nM	
TIPIGMQFDK	6040 nM	4.02 nM	17400 nM	≥ 70000 nM	38.1 nM	
LTILDDNLY	11200 nM	3240 nM	≥ 31700 nM	≥ 69500 nM	376 nM	
DTSNNIAEY	≥ 78000 nM	≥ 5000 nM	≥ 35600 nM	7610 nM	2.74 nM	
DVFFIPPEK						Kd (HLA-A*68:01; source organism: Dengue virus 2 16681-PDK53): 3.62 nM
YIFPGDKTSY	258 nM	1260 nM	18700 nM	≥ 70000 nM	40.7 nM	
IISEEYLSK	103 nM	27 nM	10100 nM	≥ 59300 nM	7850 nM	
MFEATARGAR						Kd (HLA-A*33:01; [2]): 22.3 nM
RVYANLGER						Kd (HLA-A*03:01; [3]): 18.6 nM; Kd (HLA-A*11:01; [3]): 126 nM; Kd (HLA-A*31:01; [3]): 6.3 nM; Kd (HLA-A*33:01; [3]): ≥ 45400 nM; Kd (HLA-A*68:01; [3]): 601 nM
EVTNPAVLR						Kd (HLA-A*33:01; [2]): 91.7 nM; Kd (HLA-A*68:01; [2]): 40 nM
STCFKLMLK						Kd (HLA-A*03:01; [3]): 0.808 nM; Kd (HLA-A*11:01; [3]): 0.553 nM; Kd (HLA-A*31:01; [3]): 26.5 nM; Kd (HLA-A*33:01; [3]): 1450 nM; Kd (HLA-A*68:01; [3]): 1.65 nM
IINFTISMRY	35.3 nM	1.71 nM	1420 nM	5210 nM	690 nM	
AIDAYPLTK						Kd (HLA-A*11:01; [3]): 11.6 nM; Kd (HLA-A*31:01; [3]): 8890 nM; Kd (HLA-A*33:01; [3]): ≥ 44600 nM; Kd (HLA-A*68:01; [3]): 6970 nM
ALTALNDMGK						Kd (HLA-A*03:01; [4]): 1290 nM; Kd (HLA-A*11:01; [4]): 1370 nM

Sequence	Kd (HLA-A*03:01; [1])	Kd (HLA-A*11:01; [1])	Kd (HLA-A*31:01; [1])	Kd (HLA-A*33:01; [1])	Kd (HLA-A*68:01; [1])	further results
LLVWHTWQK						Kd (HLA-A*03:01; [5]): 59 nM
IQTSVNTVVR	≥ 39700 nM	14200 nM	363 nM	≥ 29900 nM	1430 nM	
AQGLVASIK						Kd (HLA-A*03:01; [3]): 654 nM; Kd (HLA-A*11:01; [3]): 209 nM; Kd (HLA-A*31:01; [3]): 9890 nM; Kd (HLA-A*33:01; [3]): ≥ 31600 nM; Kd (HLA-A*68:01; [3]): ≥ 32600 nM
EALEYLSELK	461 nM	225 nM	17900 nM	5620 nM	105 nM	
KVVQHENLK						Kd (HLA-A*03:01; source organism: Dengue virus 3 Singapore/8120/1995): 49 nM
AARGYISTR						Kd (HLA-A*31:01; [4]): 11.1 nM; Kd (HLA-A*33:01; [4]): 315 nM
KTAVNMLTH						Kd (HLA-A*03:01; [6]): 10.1 nM; Kd (HLA-A*11:01; [6]): 216 nM; Kd (HLA-A*31:01; [6]): 45.3 nM; Kd (HLA-A*33:01; [6]): ≥ 77700 nM; Kd (HLA-A*68:01; [6]): ≥ 44800 nM
QYIHCFRKPH						Kd (HLA-A*03:01; [7]): ≥ 70000 nM; Kd (HLA-A*11:01; [7]): ≥ 69700 nM; Kd (HLA-A*31:01; [7]): 386 nM; Kd (HLA-A*33:01; [7]): 140 nM; Kd (HLA-A*68:01; [7]): ≥ 57300 nM
KVNSTLEQY						Kd (HLA-A*03:01; [3]): 58.8 nM; Kd (HLA-A*11:01; [3]): 445 nM; Kd (HLA-A*31:01; [3]): 2590 nM; Kd (HLA-A*33:01; [3]): ≥ 50400 nM; Kd (HLA-A*68:01; [3]): 955 nM
ATRLENIMWK						Kd (HLA-A*03:01; [2]): 42.3 nM; Kd (HLA-A*11:01; [2]): 6.34 nM
VFKEKVDTR						Kd (HLA-A*33:01; [5]): 63.1 nM
PLFDFVNEKY	≥ 70100 nM	≥ 69800 nM	≥ 26800 nM	≥ 70000 nM	≥ 70200 nM	
PFKVINLPK	9490 nM	665 nM	6360 nM	≥ 77700 nM	15500 nM	
VFAYVGCYNK						Kd (HLA-A*03:01; [3]): 1530 nM; Kd (HLA-A*11:01; [3]): 350 nM; Kd (HLA-A*31:01; [3]): 184 nM; Kd (HLA-A*33:01; [3]): 340 nM; Kd (HLA-A*68:01; [3]): 65.3 nM
IILSKIPYLR	40.9 nM	40.7 nM	4.77 nM	251 nM	0.777 nM	
LSSRATWAK						Kd (HLA-A*11:01; source organism: Dengue virus 4 Philippines/H241/1956): 56.5 nM
GVVRVWDVK						Kd (HLA-A*03:01; [8]): 5790 nM; Kd (HLA-A*11:01; [8]): 11.1 nM; Kd (HLA-A*31:01; [8]): ≥ 45000 nM; Kd (HLA-A*33:01; [8]): ≥ 24200 nM; Kd (HLA-A*68:01; [8]): 129 nM
TSMMVILPDK	141 nM	1.8 nM	455 nM	≥ 23000 nM	27 nM	
KSKSFNHVLK						Kd (HLA-A*03:01; [3]): 1.73 nM; Kd (HLA-A*11:01; [3]): 21.6 nM; Kd (HLA-A*31:01; [3]): 6.54 nM; Kd (HLA-A*33:01; [3]): ≥ 70000 nM; Kd (HLA-A*68:01; [3]): 3660 nM
ITANPIVTDK						Kd (HLA-A*11:01; [2]): 83 nM; Kd (HLA-A*68:01; [2]): 40.5 nM
IINDKGKQY	1940 nM	8380 nM	≥ 77900 nM	≥ 77700 nM	≥ 77700 nM	
